B1: Circadian clock oscillator protein KaiC (Synechococcus elongatus (strain PCC 7942)), Q79PF4 (parent)
chain: MTSAEMTSPNNNSEHQAIAKMRTMIEGFDDISHGGLPIGRSTLVSGTSGTGKTLFSIQFLYNGIIEFDEPGVFVTFEETPQDIIKNARSFGWDLAKLVDEGKLFILDASPDPEGQEVVGGFDLSALIERINYAIQKYRARRVSIDSVTSVFQQYDASSVVRRELFRLVARLKQIGATTVMTTERIEEYGPIARYGVEEFVSDNVVILRNVLEGERRRRTLEILKLRGTSHMKGEYPFTITDHGINIFPLGAMRLTQRSSNVRVSSGVVRLDEMCGGGFFKDSIILATGATGTGKTLLVSRFVENACANKERAILFAYEESRAQLLRNAYSWGMDFEEMERQNLLKIVCAYPESAGLEDHLQIIKSEINDFKPARIAIDSLSALARGVSNNAFRQFVIGVTGYAKQEEITGLFTNTSDQFMGAHSITDSHISTITDTIILLQYVEIRGEMSRAINVFKMRGSWHDKAIREFMISDKGPDIKDSFRNFERIISGSPTRITVDEKSELSRIVRGVQEKGPES
partner: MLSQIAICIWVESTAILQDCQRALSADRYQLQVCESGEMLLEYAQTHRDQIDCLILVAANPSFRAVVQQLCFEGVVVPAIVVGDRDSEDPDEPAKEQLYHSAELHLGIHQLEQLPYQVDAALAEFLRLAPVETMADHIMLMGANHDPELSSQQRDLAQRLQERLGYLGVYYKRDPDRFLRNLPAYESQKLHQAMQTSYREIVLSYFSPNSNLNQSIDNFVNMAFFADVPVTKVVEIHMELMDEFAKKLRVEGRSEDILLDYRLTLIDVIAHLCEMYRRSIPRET
B2: Circadian clock oscillator protein KaiA (Synechococcus elongatus (strain PCC 7942)), Q79PF6 (parent)
chain: B1 partner
partner: B1 chain

Variants of: B1
Conditions: with kaia_syne7 kaiA, Q79PF6

Variant	effect of a mutation on the interaction
R215C	decreasing interaction
P248K	decreasing interaction

Variants of: B1
Conditions: with kaia_syne7 kaiA, Q79PF6
Remark: another data set of the same source

Variant	effect of a mutation on the interaction
T495A	decreasing interaction

Variants of: B2
Conditions: with kaic_syne7 kaiC, Q79PF4

Variant	effect of a mutation on the interaction
R249H	decreasing interaction

Variants of: B2
Conditions: with kaic_syne7 kaiC, Q79PF4
Remark: another data set of the same source

Variant	effect of a mutation on the interaction
Y166C	decreasing interaction

Source: IntAct's records for PubMed 11356188
